Source: patent CN108264558A (SHANGHAI NOVOPROTEIN BIOTECHNOLOGY CO LTD, dated 2018)

Tests used:
Assay in all cases: ELISA, target coated at 1 μg/ml, TsM titrated from 10 μg/ml
CD19-CD3-B7RP-1 TsM_M = target: T1, CD19-CD3-B7RP-1 TsM_M
T1 construct: CHO-S expressed, N-glycosylated monomer; also called 单体形式的抗CD19/抗CD3/B7RP-1三特异性分子

CD19-CD3-B7RP-1 TsM_D = target: T2, CD19-CD3-B7RP-1 TsM_D
T2 construct: Disulfide-linked, glycosylated dimer; also called 二聚体形式的抗CD19/抗CD3/B7RP-1三特异性分子

CD19-CD3-GITRL TsM_M = target: T3, CD19-CD3-GITRL TsM_M
T3 construct: CHO-S expressed, N-glycosylated monomer; also called 单体形式的抗CD19/抗CD3/GITRL三特异性分子

CD19-CD3-GITRL TsM_D = target: T4, CD19-CD3-GITRL TsM_D
T4 construct: Disulfide-linked, glycosylated dimer; also called 二聚体形式的抗CD19/抗CD3/GITRL三特异性分子

CD19-CD3-4-1BBL TsM_M = target: T5, CD19-CD3-4-1BBL TsM_M
T5 construct: monomer confirmed by SDS-PAGE and mass spectrometry; also called 单体形式的抗CD19/抗CD3/4-1BBL三特异性分子; 单体形式的TiTE三特异分子

CD19-CD3-4-1BBL TsM_D = target: T6, CD19-CD3-4-1BBL TsM_D
T6 construct: Two chains joined by disulfide bonds of the IgD hinge (dimer by non-reducing SDS-PAGE and mass spectrometry); also called 二聚体形式的抗CD19/抗CD3/4-1BBL三特异性分子; 二聚体形式的TiTE三特异分子

CD19-CD3-CD70 TsM_D = target: T7, CD19-CD3-CD70 TsM_D
T7 construct: Disulfide-linked, glycosylated dimer; also called 二聚体形式的抗CD19/抗CD3/CD70三特异性分子

CD19-CD3-OX40L TsM_M = target: T8, CD19-CD3-OX40L TsM_M
T8 construct: CHO-S expressed, N-glycosylated monomer; also called 单体形式的抗CD19/抗CD3/OX40L三特异性分子

CD19-CD3-OX40L TsM_D = target: T9, CD19-CD3-OX40L TsM_D
T9 construct: Disulfide-linked, glycosylated dimer; also called 二聚体形式的抗CD19/抗CD3/OX40L三特异性分子

CD19-CD3-CD70 TsM_M = target: T10, CD19-CD3-CD70 TsM_M
T10 construct: CHO-S expressed, N-glycosylated monomer; also called 单体形式的抗CD19/抗CD3/CD70三特异性分子

Measured: binding result

B1: 人类ICOS-hFc融合蛋白 (Fc fusion)
chain: EINGSANYEMFIFHNGGVQILCKYPDIVQQFKMQLLKGGQILCDLTKTKGSGNTVSIKSLKFCHSQLSNNSVSFFLYNLDHSHANYYFCNLSIFDPPPFKVTLTGGYLHIYESQLCCQLK
notes: Bought from 吴江近岸蛋白质科技有限公司; also called 重组蛋白ICOS-hFc; T细胞正共刺激分子ICOS-hFc; not shown: human Fc (hFc)
binds: CD19-CD3-B7RP-1 TsM_M | CD19-CD3-B7RP-1 TsM_D

B2: 人类GITR-hFc融合蛋白 (Fc fusion)
chain: QRPTGGPGCGPGRLLLGTGTDARCCRVHTTRCCRDYPGEECCSEWDCMCVQPEFHCGDPCCTTCRHHPCPPGQGVQSQGKFSFGFQCIDCASGTFSGGHEGHCKPWTDCTQFGFLTVFPGNKTHNAVCVPGSPPAE
notes: Bought from 吴江近岸蛋白质科技有限公司; also called 重组蛋白GITR-hFc; T细胞正共刺激分子GITR-hFc; not shown: human Fc (hFc)
binds: CD19-CD3-GITRL TsM_M | CD19-CD3-GITRL TsM_D

B3: 人类CD19-hFc融合蛋白 (Fc fusion, human, UniProt P15391 20-291, looked up)
chain: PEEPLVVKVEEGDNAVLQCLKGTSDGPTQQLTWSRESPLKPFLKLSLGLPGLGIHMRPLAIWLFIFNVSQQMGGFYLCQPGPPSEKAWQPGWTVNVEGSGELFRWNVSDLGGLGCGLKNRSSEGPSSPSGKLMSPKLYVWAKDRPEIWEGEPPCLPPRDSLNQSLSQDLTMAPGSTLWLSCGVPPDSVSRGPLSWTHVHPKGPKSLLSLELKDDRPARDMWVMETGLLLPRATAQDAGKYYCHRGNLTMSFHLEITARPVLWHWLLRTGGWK
notes: Bought from 吴江近岸蛋白质科技有限公司; Coated at 1 μg/ml in ELISA; also called 重组抗原CD19-hFc; 抗原CD19-hFc; not shown: human Fc (hFc)
binds: all assays above
